The values below come from publication PMC6797613, “Crystal Structure Of Photorespiratory Alanine:Glyoxylate Aminotransferase 1 (AGT1) From Arabidopsis thaliana” (Frontiers in Plant Science, 2019).

The data set deals with the molecule itself. As to the kind of experiment: crystal structure; crystals grown by vapor diffusion from 4.1-4.2 M sodium formate, protein 11 mg/ml in 0.2 mM PLP, 10% glycerol, 100 mM Tris-HCl pH 8.5, room temperature; without or with 20 mM L-serine; data collected at 25°C; dimer by crystallographic dyad, tetramer by noncrystallographic two-fold axis.

B1: alanine:glyoxylate aminotransferase 1 (AGT1) from Arabidopsis thaliana (enzyme, UniProt Q56YA5 1-401, looked up)
chain: MDYMYGPGRHHLFVPGPVNIPEPVIRAMNRNNEDYRSPAIPALTKTLLEDVKKIFKTTSGTPFLFPTTGTGAWESALTNTLSPGDRIVSFLIGQFSLLWIDQQKRLNFNVDVVESDWGQGANLQVLASKLSQDENHTIKAICIVHNETATGVTNDISAVRTLLDHYKHPALLLVDGVSSICALDFRMDEWGVDVALTGSQKALSLPTGLGIVCASPKALEATKTSKSLKVFFDWNDYLKFYKLGTYWPYTPSIQLLYGLRAALDLIFEEGLENIIARHARLGKATRLAVEAWGLKNCTQKEEWISNTVTAVMVPPHIDGSEIVRRAWQRYNLSLGLGLNKVAGKVFRIGHLGNVNELQLLGCLAGVEMILKDVGYPVVMGSGVAAASTYLQHHIPLIPSRI
notes: alanine:glyoxylate aminotransferase 1 (AGT1), Arabidopsis thaliana, AGI At2G13360, full length (residues 2/3-401 seen in the crystal); Untagged recombinant protein from a pET28a-derived plasmid (construct as in Liepman and Olsen, 2001); Catalytic dimer; an apparent tetramer (dimer of dimers) is seen in the crystal only; also called Arabidopsis AGT1; serine:glyoxylate aminotransferase; source: E. …
B1: the “stoichiometry N” value came to 2.

As a reminder, the stoichiometry N is the number of molecules, sites or subunits per partner or assembly.
